Reference: patent US7960140B2, “Avidin mutants” (Orion Diagnostica Oy, priority 2003, dated 2011)
Read-outs that look alike come from different tables or passages of the source.

B1: dcAvd: dual-chain avidin, fusion of cpAvd5→4 and cpAvd6→5 via SGG spacer (SEQ ID NO:2) (protein, listed as Gallus gallus)
chain: MVHATSPLLLLLLLSLALVAPGLSARKRTQPTFGFTVNWKFSESTTVFTGQCFIDRNGKEVLKTMWLLRSSVNDIGDDWKATRVGINIFTRLRTQKEGGSGGSARKCSLTGKWTNDLGSNMTIGAVNSRGEFTGTYITAVTATSNEIKESPLHGTQNTINKSGGSTTVFTGQCFIDRNGKEVLKTMWLLRSSVNDIGDDWKATRVGINIFTRLRTQKEGGSGGSARKCSLTGKWTNDLGSNMTIGAVNSRGEFTGTYITAVTATSNEIKESPLHGTQNTINKRTQPTFGFTVNWKFSE

How the values were obtained:
[1] = Free biotin-binding sites by quenching of intrinsic fluorescence on biotin titration; details: for Fluorescence quenching (350 nm): intrinsic fluorescence, emission 350 nm, due to binding of biotin; for Number of free biotin-binding sites per quaternary unit: protein 500±15 nM, titrated with biotin
Description: The number of free binding sites was determined based on the quenching of the intrinsic fluorescence of avidin due to binding of biotin (Laitinen et al., (2003) J. Biol. Chem. 278, 4010-4014). The protein sample under study diluted to 2 ml volume in 50 mM NaPO4 pH 7.0+650 mM NaCl was titrated with 1 μl additions of 70 μM biotin solution in the same buffer. The protein concentration in this assay was 500±15 nM, and the concentration was determined by comparing the emission intensity averaged over 340-350 nm (excitation at 280 nm) to avidin standard sample. The protein sample was continuously mixed by magnetic stirrer.
Intensity from each biotin concentration was averaged over eight second measurement. The end-point of the quenching was determined by fitting a line to obtained data and determining the total quenching by averaging the last three measured intensities (FIG. 12, Table 6).

[2] = Microplate temperature stability assay; format: physicochemical; details: for activity after 32 min treatment: 80° C.
Description: FIG. 13. Temperature sensitivity determined by microplate assay. The avidin, dcAvd and scAvd sample is treated with the indicated temperature for certain time and the ability to bind biotinylated alkaline phosphatase was determined by coating the microplate with the sample.
The stability of the protein was studied by microplate assay as described in the article by Nordlund et al., (2003) J Biol Chem 278, 2479-83. In this assay, 50 mM Na—PO4 buffer containing 100 mM NaCl was used and the protein was heated to 80° C. or 90° C. for certain time. After that, the capacity to bind fluorescent biotin was measured as described in the article by Nordlund et al., (2003) J Biol Chem 278, 2479-83.

[3] = Reversibility of biotin binding on biotinylated IAsys cuvette surface; details: reversibility from biotin surface; biotin 423 μg/ml, one hour
Description: The reversibility of biotin binding was also measured using IAsys apparatus. In the reversibility assay, the sample proteins were allowed to bind to the biotinylated cuvette surface in PBS containing 1 M NaCl. After the equilibrium was reached, the cuvette was filled with PBS, 1 M NaCl containing biotin (423 μg/ml) and the dissociation of the proteins was monitored for one hour.

[4] = IAsys optical biosensor binding to immobilised 2-iminobiotin; details: for kass / kdiss: 2-iminobiotin surface, 50 mM borate pH 9.5, 1 M NaCl, 20° C.; for Kd: 2-iminobiotin
Description: Reversibility of biotin binding and affinity towards 2-iminobiotin were determined with an IAsys optical biosensor (Affinity Sensors, Cambridge, UK) (Table 1.) as described in detail by Marttila et. al. (Marttila, A. T. et al. FEBS Lett 441, 313-7 (1998)). Briefly, The 2-iminobiotin ligand was immobilized onto the carboxymethyldextran surface of a cuvette using N-hydroxysuccinimide activation. Binding of various concentrations of avidin or avidin mutants onto 2-iminobiotinylated surface was measured in a 50 mM borate buffer (pH 9.5) containing 1 M NaCl at 20° C. The 2-iminobiotin cuvettes were regenerated with 20 mM HCl. The kinetic rate constants for association (kass) and dissociation (kdiss) were calculated using the Fast Fit program package (Affinity Sensors). The obtained rate constants were used to calculate Kd(rel) according to Kd=kdiss/kass. Equilibrium data obtained from measurements with different protein concentrations were used to calculate the dissociation constant Kd(eq).

[5] = Dissociation assay with fluorescent biotin conjugate (ArcDia BF560); format: binding; details: for Release 1 h / kdiss / t1/4 (time point of 25% release): 23 ± 1° C.; for Release 1 h: 100-fold molar excess of free biotin; for kdiss: one-phase dissociation model; for t1/4 (time point of 25% release): determined directly from the measured data
Description: The biotin-binding properties of produced mutagenised dcAvds were analysed by method based on the quenching of biotin-coupled fluorescent probe ArcDia BF560 (ArcDia Ltd., Turku, Finland) due to binding to avidin (FIG. 4). PerkinElmer LS55 luminometer was used for measurements. […] The spectra of 50 nM biotin-Bf560 solution in 50 mM Na-phosphate containing 650 mM NaCl was measured (red). Chicken avidin (Belovo S. A., Bastogne, Belgium) was added to final subunit concentration of 83 nM and green spectra was obtained.
Briefly, 50 nM free biotin-Bf560 solution in 50 mM Na-phosphate containing 650 mM NaCl was measured using excitation at 560 nm (2.5 nm slit) and emission was collected at 578 nm (5 nm slit). Continuous stirring (setting low) was used throughout the analysis. After 100 sec measurement, the protein under study was added to final biotin-binding subunit concentration 50 nM and the measurement was continued for 500 sec. […]
A one-phase dissociation model was used to analyse the data, as described elsewhere (Hytönen et al., (2004) Biochem J, in press). The dissociation rate constant (kdiss) was determined by fitting the equation −kdisst=ln(B/Bo) to the data. Bo is the measured maximum binding (100%) determined as the difference between the fluorescence of the free dye and the fluorescence of the protein-dye complex, and B is the amount of complex measured as a function of time. The first 500 seconds were omitted from the data to abolish the effect of the fast initial phase characteristic of avidin-BF560-biotin interaction (FIG. 9). The fraction of fluorescent biotin released after one-hour was determined, as well as the times of half-maximal (t½) and quarter-maximal (t¼) release. For dual chain avidins with modified binding sites, it was hypothesized that 50% of the binding sites would behave like those of wt avidin (cpAvd5S4 binding site of dcAvd was not modified). The dissociation data measured for wt avidin divided by two was subtracted from the data measured for the modified dual chain avidins and the dissociation curve was fitted to the difference as above.

[6] = SDS-PAGE-based thermal stability assay; format: physicochemical; details: for Tr / Tr + btn: Table 2; for Tr: absence of biotin, half of tetramer/pseudo-tetramer broken into monomers; for Tr + btn: presence of biotin; for SDS-PAGE stability assay Tr (−)biotin / SDS-PAGE stability assay Tr (+)biotin: Table 5; for SDS-PAGE stability assay Tr (−)biotin: transition midpoint of oligomeric disassembly, without biotin; for SDS-PAGE stability assay Tr (+)biotin: with biotin
Description: Thermal stability of the mutants was studied by using a SDS-PAGE-based method essentially as described in detail by Bayer et al. (Bayer, E. A. et al. Electrophoresis 17, 1319-1324 (1996)). Briefly, the protein sample in the absence or presence of biotin was diluted to a final concentration of 0.2 mg/mil in 50 mM Na-carbonate buffer, and the proteins were acetylated by adding acetyl NHS ester. Equal amount of SDS-PAGE sample buffer was added to each sample and the protein was incubated at different temperatures (between 25-100° C.) for 20 minutes. After that the samples were subjected to SDS-PAGE analysis and the gel was finally stained with Coomassie brilliant blue. Dissociation of the proteins into their subunits was observed from the gels and the transition temperatures, wherein half of the protein was (pseudo-)tetrameric and half monomeric were determined.

[7] = Heat-induced unfolding by DSC; format: physicochemical; details: for ΔTm: change in Tm upon addition of a three-fold molar excess of biotin; for DSC Tm (+)biotin: three-fold molar excess of biotin; for DSC Tm (−)biotin: without biotin
[8] = Colorimetric HABA-assay for number of free biotin-binding sites; details: average from two independent experiments
Description: The colorimetric HABA-assay was performed essentially as described by Green (Green, N. Methods in Enzymology 18, 418-424 (1970)). Dual-chain avidin (dcAvd) in 100 mM phosphate buffer (pH 7) was saturated with excess HABA and the absorbance was measured at 500 nm with a Beckman DU640 spectrophotometer. After that, excess biotin, which replaces HABA from the binding site, was added to the sample and the absorbance at 500 nm was measured again. The observed change in the absorbance was used to calculate the number of free binding sites in dcAvd.
The number of biotin-binding sites per dual-chain avidin pseudo-tetramer (is actually a dimer with four binding sites) was determined in a colorimetric HABA-assay according to Green (Green, N. Methods in Enzymology 18, 418-424 (1970)). The average from two independent experiments gave an approximation of 3.3 free biotin-binding sites per dimeric molecule (pseudo-tetramer).

[9] = calculated from the rate constants (kdiss/kass), read-out: Kd(rel)
[10] = determined experimentally from the binding curves, read-out: Kd(eq)

| Molecule | quenching measured for whole emission spectrum (290-500 nm) due to biotin binding [1] [%] | Fluorescence quenching (350 nm) [1] [%] | Number of free biotin-binding sites per quaternary unit [1] | activity after 32 min treatment ([2]; 32 min) [%] | heat inactivation ([2]; 100° C.) | reversibility [3] [%] | kass [4] | kdiss [4] | Kd [4, 9] [nM] | Kd [4, 10] [nM] | Release 1 h [5] [%] | kdiss [5] [s⁻¹] | Dissociation of fluorescent biotin Release 1 h ([5]; 25° C.) [%] | Dissociation of fluorescent biotin kdiss ([5]; 25° C.) [s⁻¹] | Dissociation of fluorescent biotin Release 1 h ([5]; 50° C.) [%] | SDS-PAGE stability assay Tr (−)biotin [6] [°C] | SDS-PAGE stability assay Tr (+)biotin [6] [°C] | ΔTm [7] [°C] | DSC Tm (+)biotin [7] [°C] | DSC Tm (−)biotin [7] [°C] | other results |
| --- | --- | --- | --- | --- | --- | --- | --- | --- | --- | --- | --- | --- | --- | --- | --- | --- | --- | --- | --- | --- | --- |
| Avidin: wild-type chicken avidin, homotetramer (SEQ ID NO:1) [reference compound] | 44.9 | 47.7 | 3.34 | 82 | significantly slower response to the heat treatment | 9 | (5.5 ± 0.5) × 10^5 M^−1s^−1 | (1.9 ± 1.4) × 10^−3 s^−1 | 34 | 22 | 14.1 | 2.3e-05 | 14.1 | 2.3e-05 | 71.5 | 60 | 95 | 33.5 | 117.0 ± 0.7 | 83.5 ± 0.1 | Number of free biotin-binding sites per quaternary unit ([1]; listed as avidin): 3.3; activity present after 32 min treatment ([2]; 90° C., 32 min): over 50%; Dissociation of fluorescent biotin kdiss ([5]; 50° C.): 0.00024 s⁻¹; Tr [6]: 60 °C; Tr + btn [6]: 95 °C |
| Avd(Y33H): avidin with four identically mutagenised (Y33H) subunits (Marttila et al. 2003) [reference compound] |  |  |  |  |  |  |  |  |  |  | 99.2 | 0.0011 |  |  |  |  | 75 | 33.3 | 106.3 | 73.0 | dissociation of biotin-coupled fluorescent probe with excess unlabeled biotin ([5]; 5 μM free biotin, 3600 sec, 23±0.5° C.): rapid and complete dissociation; t1/4 (time point of 25% release) [5]: 149 s |
| Avd(S16A): avidin mutant S16A in all four subunits |  |  |  |  |  |  |  |  |  |  | 74.5 | 0.00036 |  |  |  | 55 | 80 | 30.3 | 114.6 ± 0.2 | 84.3 ± 0.3 | t1/4 (time point of 25% release) [5]: 621 s |
| B1 | 45.1 | 51.4 | 3.86 | 59 | fast inactivation | 8 | (9.8 ± 1.3) × 10^4 M^−1s^−1 | (1.1 ± 0.5) × 10^−3 s^−1 | 110 | 41 | 10.1 | 1.4e-05 | 10.1 | 1.5e-05 | 67.4 | 40 | 75 | 35.7 | 115.9 | 80.2 ± 0.0 | heat inactivation ([2]; 90° C.): fast denaturation; free biotin-binding sites per dimeric molecule (pseudo-tetramer) [8]: ~3.3; Dissociation of fluorescent biotin kdiss ([5]; 50° C.): 0.00027 s⁻¹; Tr [6]: 40 °C; Tr + btn [6]: 75 °C |
